Laboratory results: PMC3676807, “A Chimeric UDP-Glucose Pyrophosphorylase Produced by Protein Engineering Exhibits Sensitivity to Allosteric Regulators” (International Journal of Molecular Sciences, 2013)

What was measured:
[1] = molecular target: T1, SmuGalU-Δ294EcoGlgC (chimeric UDP-Glc PPase); test: Pi release after pyrophosphatase, Malachite Green; Hill fit; assay type: biochemical, Streptococcus mutans; Escherichia coli; conditions: allosteric activator; 1 mM Glc-1P, 1 mM UTP, 3 mM Mg2+, pH 8.0, 37 °C; read-out: A0.5
T1 construct: gene galU; entire S. mutans GalU fused to the 137 C-terminal residues of E. coli GlgC (from P295); N-terminal His-tag kept; E. coli BL21 (DE3) pLysS; homotetramer ~200 kDa

[2] = test system: T1, SmuGalU-Δ294EcoGlgC (chimeric UDP-Glc PPase); test: as above; assay type: biochemical, Streptococcus mutans; Escherichia coli; conditions: UDP-Glc synthesis, no effector, 3 mM Mg2+, pH 8.0, 37 °C
Text: Pi release after pyrophosphatase, Malachite Green; Hill fit on SmuGalU-Δ294EcoGlgC (chimeric UDP-Glc PPase)

[3] = molecular target: UDP-glucose pyrophosphorylase from Streptococcus mutans (SmuGalU) (Streptococcus mutans ATCC 25175); test: SEC; gel filtration on Superdex 200 (Tricorn 5/200 column), calibrated with protein standards 44-669 kDa; mass of the native protein; buffer not stated
[4] = molecular target: chimeric SmuGalU-Δ294EcoGlgC (Streptococcus mutans ATCC 25175 | Escherichia coli) (UniProt P0A6V1); test: as above
[5] = substrate: O=P(O)(O)O[C@H]1O[C@H](CO)[C@@H](O)[C@H](O)[C@H]1O; test: Pi release after pyrophosphatase, Malachite Green; Hill fit; assay type: biochemical, Streptococcus mutans; conditions: UDP-Glc synthesis, saturating UTP, 3 mM Mg2+, pH 8.0, 37 °C
[6] = substrate: Cc1cn([C@H]2C[C@H](O)[C@@H](COP(=O)(O)OP(=O)(O)OP(=O)(O)O)O2)c(=O)[nH]c1=O; test: as above; assay type: biochemical, Streptococcus mutans; conditions: dTDP-Glc synthesis, 1 mM Glc-1P, 3 mM Mg2+, pH 8.0, 37 °C
[7] = substrate: O=c1ccn([C@@H]2O[C@H](COP(=O)(O)OP(=O)(O)OP(=O)(O)O)[C@@H](O)[C@H]2O)c(=O)[nH]1; test: as above; assay type: biochemical, Streptococcus mutans; conditions: UDP-Glc synthesis, saturating Glc-1P, 3 mM Mg2+, pH 8.0, 37 °C

In the case of `O=C(O)[C@H](O)COP(=O)(O)O` [3-PGA], the EC50 [1] is reported as 5.4 mM.

With `O=P(O)(O)OC[C@H]1OC(O)(COP(=O)(O)O)[C@@H](O)[C@@H]1O` (some centres unmarked) [Fru-1,6-bisP] the EC50 [1] was 2 mM.

Work on `O=P(O)(O)O[C@H]1O[C@H](CO)[C@@H](O)[C@H](O)[C@H]1O` [Glc-1P] yielded a Km ([2]; saturating UTP) of 60 ± 5 µM.

Molecule `CC(=O)C(=O)O` [Pyr] has an EC50 [1] of 30 mM.

In the case of `O=c1ccn([C@@H]2O[C@H](COP(=O)(O)OP(=O)(O)OP(=O)(O)O)[C@@H](O)[C@H]2O)c(=O)[nH]1` [UTP], the Km ([2]; saturating Glc-1P) is reported as 240 ± 20 µM.

Work on “UDP-glucose pyrophosphorylase from Streptococcus mutans (SmuGalU) (enzyme)” yielded a stoichiometry N [3] of 4.

“chimeric SmuGalU-Δ294EcoGlgC (from UniProt P0A6V1 295-431) (enzyme)” gave a stoichiometry N [4] of 4.

B1: SmuGalU (UDP-Glc PPase from S. mutans) (Streptococcus mutans UA159) (protein)
chain: MPSKKVRKAVIPAAGLGTRFLPATKALAKEMLPIVDKPTIQFIVEEALKSGIEDILVVTGKSKRSIEDHFDSNFELEYNLEQKGKTDLLKLVNDTTAINLHFIRQSHPRGLGDAVLQAKAFVGNEPFVVMLGDDLMDITDDKAIPLTRQLMNDYEETHASTIAVMEVPHEDVSAYGVIAPQGEGVSGLYSVDTFVEKPAPKEAPSNLAIIGRYLLTPEIFTILETQEPGAGNEVQLTDAIDTLNKTQRVFAREFKGKRYDVGDKFGFMKTSIDYALKHPQVKEDLKAYIIELGKKLDQKSTQKNSD
notes: full-length, N-terminal His-tag kept (pRSET-B), expressed in E. coli BL21 (DE3), Ni-NTA purified; homotetramer ~150 kDa; gene 921 bp
With B1 the K0.5 [5] was 0.090 ± 0.005 mM, the Vmax [5] was 62.1 µmol/min/mg and the Vmax/Km [5] was 690000 µL/min/mg. It also gave a K0.5 [6] of 0.54 mM, a K0.5 [7] of 0.68 ± 0.06 mM and a Vmax [7] of 62.1 µmol/min/mg. For the same molecule, the Vmax/Km [7] was 91300 µL/min/mg.
